Data as given in PMC10373194, “Determination of the Dissociation Constant for Polyvalent Receptors Using ELISA: A Case of M13 Phages Displaying Troponin T-Specific Peptides” (ACS Omega, 2023).
Values joined by “and” are separate entries in the source; they are usually repeats but may differ in a detail not shown here. Equal entries are not always repeated. Where two headings read alike, the source gives them in different places.

How the values were obtained:
troponin T (TnT) [1] = molecular target: T1, troponin T (TnT) (Homo sapiens, UniProt P45379); experiment: Determination of Kd via k-ELISA (Friguet procedure, preincubation of phage with soluble TnT); type: binding
Description: During an ELISA experiment, as proposed by Friguet,[21] a constant concentration of phages is incubated with different concentrations of TnT. Saturation of phages (in solution) by soluble TnT limits the ability of phages to bind to immobilized TnT, and therefore, increasing concentration of TnT causes a decrease in signal from the phages, in our case, the M13. Theoretically, two options have to be discussed: (1) a signal (a) is generated for each phage with at least one unoccupied active site (eq 11) and (2) a signal (a) is generated proportionally to the total concentration of unoccupied active sites (eq 12). [drawing 21] 11 [drawing 22] 12
ELISA (also k-ELISA) can be used to measure the dissociation constant (Kd), which is commonly applied to describe affinity.[21] According to the mathematical model presented above, the Kd value can be calculated via pre-incubation of a receptor with varied concentrations of ligand and subsequent detection of the soluble receptor (phage) via ELISA. This approach was adapted and applied to evaluate the affinity of several phage-derived ligands[16]−[18] but without a theoretical analysis and fulfilling fundamental Friguet’s assumptions.[21] In these papers, phages were treated as monovalent receptors while they are tri to pentavalent (due to a varied number of pIII protein per phage particle). Moreover, the authors applied a wide range of ligand concentrations, high excess compared to the receptor and treated the concentration-signal function as logarithmic, while the discussion above concluded that it is not possible to apply Frigeut’s method for almost completely saturated receptors (due to ligand excess).
In our work, analysis was performed for clones: A3, B7, D11, and wild-type M13. […] The phages’ total concentration was about 1 × 10^10 pfu/mL (16 pM) and was carefully determined using the biological method immediately before analysis. The range of ratios of total TnT and total phage concentration was 1:2, 1:1, 2:1, and 4:1. […] As a result, a decrease in the ability to bind to immobilized TnT molecules occurs. Experimental data were analyzed according to the presented mathematical model.
The dissociation constant was calculated using k-ELISA, according to the procedure first described by Friguet.[21] Phages (∼10^10 pfu/mL corresponding to about 16 pM) were preincubated with different concentrations of TnT from 0 to 4 ng/mL (which corresponds to 108 pM). Next, mixtures were transferred into wells precoated with 0.25 μg/mL TnT (or BSA). Further steps were performed in the same manner as for phage concentration measuring experiments.

troponin T (TnT) [2] = molecular target: T1, troponin T (TnT); experiment: ELISA screening of isolated phage clones against TnT (BSA as negative control)
Description: It is worth mentioning that both TnT- and BSA-precoated wells were blocked with the same 0.1% BSA solution, so BSA was present in each well in significant excess.
ELISAs were performed in 96-well polystyrene plates (Thermo Scientific, USA). Wells were precoated with the desired protein by 16–20 h incubation of the protein suspension in PBS at 4 °C. In all assays, 1:5000 dilution of HRP-antiM13pVIII monoclonal antibody conjugate was used. Signals were recorded using Synergy HTX Multi-Mode Reader by BioTek.
In the initial screening, plates were precoated with troponin T or BSA (negative control) by incubating 100 μL of 1 μg/mL appropriate protein solution. Then plates were blocked with 0.1% BSA for 2 h at 4 °C and washed 4 times with 0.1% PBST. Every isolated phage clone solution (phages concentration 10^10 pfu/mL, 100 μL) was incubated with TnT and BSA for 1 h at 350 rpm at room temperature. Then wells were washed 4 times using 0.1% PBST, 100 μL of HRP-antibody conjugate was added, and plates were incubated as previously. After 1 h, plates were washed as before, and 50 μL of TMB was added. After 5 min, the reaction was stopped by adding 50 μL of 2 M sulfuric acid. Absorbance at 450 nm was read using a Synergy HTX Multi-Mode Reader (BioTek) plate reader.

troponin T (TnT) [3] = molecular target: T1, troponin T (TnT); type: binding
troponin T (TnT) [4] = molecular target: T1, troponin T (TnT); experiment: Bio-panning of Ph.D.-12 phage display library on TnT-coated plates; type: binding; conditions: after 3 rounds of bio-panning; number of proper sequences
Text: In each bio-panning round, the input and output phases were titrated immediately before or after the experiment. The presented mean p(O/I) value for each bio-panning round may be interpreted as the efficiency of phage binding. In chemical nomenclature, p(x) is defined as −log(x), so a higher p(O/I) means a lower ratio of phage output–input. The p(O/I) value for the first panning round is relatively low. However, usage of more concentrated Tween-20 (from 0.1 to 0.5%) causes a significant increase in p(O/I) values for the second round (around 4) despite a higher phage input. In addition, there is a difference between the second and the third p(O/I), which may be interpreted as an enrichment of TnT-binders in the phage pool, and it is the main aim of bio-panning via phage display. The increase in phage recovery yield is a widely reported observation by manufacturers and other authors.[14],[17],[35],[36]
Plate panning was performed regarding the general concept presented by Barbas et al.[60] with some modifications. Polystyrene plates were precoated with TnT and incubated overnight (18–24 h) in 100 μL of 20 μg/mL TnT solution in PBS at 4 °C. Then, the wells were emptied and filled with 100 μL of 0.1% BSA solution (in PBS) and incubated for 2 h in the fridge. Later, they were washed four times with PBST 0.1% (in the first panning round) and 0.5% in the next two. […]

[5] = assumed stoichiometry 1:1, k-ELISA, phages ~10^10 pfu/mL (about 16 pM) preincubated with TnT 0 to 4 ng/mL, wells precoated 0.25 μg/mL TnT, 0.01% myoglobin blocking, absorbance 370 nm every 70 s for 10 min, linear slope regression, triplicate, phage-displayed peptide
[6] = assumed stoichiometry 1:2, k-ELISA, phages ~10^10 pfu/mL (about 16 pM) preincubated with TnT 0 to 4 ng/mL, wells precoated 0.25 μg/mL TnT, 0.01% myoglobin blocking, absorbance 370 nm every 70 s for 10 min, linear slope regression, triplicate, phage-displayed peptide

Substance | Kd (troponin T (TnT) [1]; [5]) [nM] | Kd (troponin T (TnT) [1]; [6]) [nM] | Kd (troponin T (TnT) [1]; assumed stoichiometry 1:5, k-ELISA, phages ~10^10 pfu/mL (about 16 pM) preincubated with TnT 0 to 4 ng/mL, wells precoated 0.25 μg/mL TnT, 0.01% myoglobin blocking, absorbance 370 nm every 70 s for 10 min, linear slope regression, triplicate, phage-displayed peptide) [nM] | ELISA signal TnT versus BSA / affinity in screening (in words) (troponin T (TnT) [2]) | Kd (troponin T (TnT) [1]) | nature of interaction with target (troponin T (TnT) [3]) | frequency among sequenced clones (troponin T (TnT) [4])
B7: TnT-binding M13 phage clone displaying 12-amino-acid peptide (HRSMPTPLWYTA in Table 2) on pIII | 0.077 ± 0.013 | 0.166 ± 0.03 | 0.143 ± 0.053 | – | – | – | –
D11: TnT-binding M13 phage clone displaying 12-amino-acid peptide (ALKIGPETTIYM in Table 2) on pIII | 0.167 ± 0.007 | 0.216 ± 0.04 | – | – | – | – | –
DHAQRYGAGHSG [A3] | – | – | – | highest affinity in screening | 0.115 nM and 0.187 nM and 0.172 nM | specific interaction with the studied target | 4 out of 16 and 4/16
